Data as given in the supplement of paper PMC10567573.

B1: MIA2 (parent)
chain: NSISSDKEATVPCTEILTEKKDTI
B2: INTS3 (parent)
chain: YPPLEGHVRQGVFSSLNHIVEKRV

Variants of: B1
Assay: protein stability index of a GFP-peptide fusion (GPS, HEK-293T) (PSI 1-6); higher = more stable
Settings: c terminus: a fixed tail appended
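Also: lentivirally expressed fusions sorted by FACS into six bins by GFP to DsRed ratio, PSI derived from sequencing read proportions per bin multiplied by bin number.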

Protein stability index, by site and new letter:
K21: Q 5 | A 5.37 | P 5.36 | T 5.51 | F 5.07 | H 5.15 | E 5.69 | L 5.42 | C 5.27 | V 5.1 | Y 4.84 | R 5.39 | M 5.7 | D 5.72 | S 5.37 | W 4.59 | N 5.48 | I 5.14
K20: H 5.42 | L 4.94 | A 5.34 | Q 5.39 | V 5.31 | D 5.68 | I 5.15 | G 5.47 | T 5.48 | C 5.25 | R 5.17
T23: H 5.3 | D 5.17 | Y 5.1 | P 5.65 | C 5.46 | Q 5.55 | L 5.37 | G 5.5 | M 5.33 | K 5.54 | W 4.17
K7: Q 5.25 | C 5.31 | I 5.27 | H 5.38 | E 5.21 | W 5.05 | D 5.4 | M 4.95 | N 5.51 | A 5.07 | V 4.95 | L 5.52
E8: H 4.91 | N 5.31 | P 5.27 | V 4.99 | Y 4.95 | W 4.73 | Q 5.52 | D 5.5 | C 5.27 | K 5.46
I3: P 5.36 | N 5.7 | G 5.54 | A 5.61 | W 5.52 | Q 5.6 | D 5.44 | T 4.68 | C 5.33 | R 5.7 | L 5.02 | F 5.38 | E 5.51 | H 5.43 | K 5.71
A9: S 5.31 | G 5.42 | Q 5.25 | V 5.17 | C 4.71 | M 5.59 | T 5.38 | F 5.36 | K 5.47 | L 5.32 | N 4.88 | E 5.28 | R 5.23
I16: C 5.27 | A 5.53 | H 5.49 | E 5.62 | F 5.19 | N 5.47 | P 5.52 | K 5.64 | G 5.11 | S 5.41 | R 5.57
E19: F 4.62 | L 4.43 | Y 5.06 | V 5.18 | P 5.66 | D 5.46 | G 5.22 | K 4.93 | N 5.32 | H 5.03 | Q 5.22 | W 4.59 | R 5.42
I24: L 5.32 | M 5.52 | Q 5.61 | D 5.72 | F 5.33 | T 5.67 | P 5.66 | Y 5.36 | C 5.68 | W 5.32 | N 5.7 | E 5.81 | A 5.66 | R 5.36
T10: Y 4.63 | N 5.6 | A 5.65 | C 5.5 | L 5.43 | R 4.85 | V 5.29 | D 5.61 | G 5.4 | Q 5.48 | S 5.72 | M 5.17 | I 5.2 | H 5.48
T18: I 5.19 | S 5.39 | H 5.35 | N 5.46 | W 5.05 | F 5.48 | D 5.72 | R 5.1 | K 5.42 | P 5.26 | Y 5.19
D22: W 3.49 | S 4.7 | R 4.89 | K 5.16 | M 4.62 | A 5.35 | V 4.31 | G 5.33 | F 4.5 | Q 5.11 | T 5.04 | E 5.6 | H 4.94
S5: T 5.39 | I 5.17 | C 5.25 | R 4.71 | N 5.69 | W 5.17 | H 5.47 | E 5.67 | D 5.4 | V 5.46 | L 5.42 | Q 5.43 | A 5.33 | G 5.42 | M 5.23 | K 5.83
S2: I 5.32 | A 5.52 | W 5.05 | P 5.31 | Q 5.33 | F 5.37 | V 5.46 | Y 4.49 | L 5.37 | R 5.26 | E 5.67 | T 5.1
C13: M 5.59 | Q 5.57 | T 5.66 | N 5.7 | F 5.28 | D 5.54 | G 5.49 | V 5.58 | P 5.35 | S 5.65
D6: F 4.84 | G 5.28 | S 5.71 | I 4.98 | R 4.9 | Y 4.71 | Q 5.12 | T 5.31 | M 5 | E 5.63 | A 5.45 | L 5.06 | N 5.42 | C 4.52 | W 4.62 | H 4.89
V11: C 4.84 | N 5.49 | H 4.62 | S 5.22 | P 5.55 | W 5.22 | K 5.59 | R 5.28 | T 5.67 | A 5.38 | E 5.52 | M 5.59 | G 5.07 | I 5.28
E15: R 4.9 | G 4.92 | L 4.57 | I 4.25 | D 5.45 | S 5.34 | K 4.92 | C 4.8 | A 5.24 | V 4.66 | Y 4.68
P12: E 5.57 | N 5.51 | Q 5.4 | R 5.38 | L 4.54 | F 4.92 | I 5.11 | V 5.35 | Y 4.34 | G 5.53 | D 5.53
N1: R 5.48 | M 5.33 | T 5.05 | P 5.68 | H 5.44 | W 4.89 | G 5.24 | E 5.73 | K 5.76 | I 4.79 | V 5 | L 5.09 | F 4.77 | Q 5.44
L17: V 5.18 | G 5.64 | M 5.28 | N 5.4 | K 5.46 | W 4.52 | Y 5.37 | I 5.34 | E 5.78 | D 5.46 | R 5.45 | T 5.71 | Q 5.4
S4: H 5.5 | N 5.18 | D 5.54 | R 5.35 | M 5.43 | P 5.24 | I 4.68 | F 4.76 | K 5.29 | E 5.68 | Y 5.44
T14: M 5.12 | D 5.88 | G 5.09 | E 5.49 | R 5.33 | I 5.21 | Y 5.1 | S 5.36 | K 5.49 | Q 5.13 | L 4.99 | F 4.93 | A 5.36

Variants of: B2
Assay: as above
Settings: c terminus: a fixed tail appended

Protein stability index: each site, then its substitutions
N17: S 2.29 | L 2.46
R9: I 1.38 | N 2.75 | M 2.47
V8: T 3 | N 2.55
Y1: T 3.94
R23: A 2.19
E21: W 1.95 | Y 2.23
V12: G 2.54 | L 3.31
P3: F 2.29
G6: P 2.76
V24: F 1.99
V20: E 3.08
F13: Q 3.16 | H 4.25
Q10: R 2.26
K22: Q 2.23 | Y 1.34
L4: Y 1.83 | V 3.04 | E 1.08
H7: G 2.3
H18: V 1.36
